Reference: the supplement of paper PMC9112550, “Optimization of the antimicrobial peptide Bac7 by deep mutational scanning” (BMC Biology, 2022)

Tested on: Escherichia coli TOP10
Experiment: shrunken log2 fold change of peptide-encoding DNA abundance (4.5 h post-induction vs induction); higher = less antimicrobial activity (less host growth inhibition)
Conditions: time post-induction: 4.5 h; library: site-saturation at positions 5, 18, 19, 20
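Further: peptides expressed intracellularly from a pBAD plasmid library in pooled LB shake-flask culture, induced with 0.3% L-arabinose, DNA abundance read by NGS, three biological replicates, DESeq2 with apeglm shrinkage.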

| Sequence | shrunken log2 fold change |
| --- | --- |
| RRIRYRPPRLPRPRPRPACLPRP | -0.211 |
| RRIRFRPPRLPRPRPRPCMVPRP | 1.01 |
| RRIRSRPPRLPRPRPRPKASPRP | -0.0199 |
| RRIRTRPPRLPRPRPRPKCRPRP | 0.0762 |
| RRIRYRPPRLPRPRPRPRQPPRP | 0.137 |
| RRIRRRPPRLPRPRPRPAAQPRP | 0.462 |
| RRIRRRPPRLPRPRPRPDGEPRP | -0.0341 |
| RRIRMRPPRLPRPRPRPQIFPRP | -0.0615 |
| RRIRQRPPRLPRPRPRPACPPRP | 0.0154 |
| RRIRDRPPRLPRPRPRPGVSPRP | 0.158 |
| RRIRSRPPRLPRPRPRPTLTPRP | 0.206 |
| RRIRKRPPRLPRPRPRPLWAPRP | 0.452 |
| RRIRTRPPRLPRPRPRPHAPPRP | -0.046 |
| RRIRYRPPRLPRPRPRPQKEPRP | -0.245 |
| RRIRKRPPRLPRPRPRPRYFPRP | 0.135 |
| RRIRGRPPRLPRPRPRPSVLPRP | 0.389 |
| RRIRPRPPRLPRPRPRPTFRPRP | 0.0885 |
| RRIRERPPRLPRPRPRPCPIPRP | -0.246 |
| RRIRIRPPRLPRPRPRPNKWPRP | -0.0869 |
| RRIRKRPPRLPRPRPRPNGWPRP | 0.452 |
| RRIRMRPPRLPRPRPRPPICPRP | 0.292 |
| RRIRFRPPRLPRPRPRPHCIPRP | -0.457 |

| Sequence | shrunken log2 fold change |
| --- | --- |
| RRIRERPPRLPRPRPRPKYCPRP | -0.368 |
| RRIRIRPPRLPRPRPRPSKHPRP | -0.813 |
| RRIRVRPPRLPRPRPRPLHNPRP | -0.143 |
| RRIRHRPPRLPRPRPRPGKEPRP | -0.0977 |
| RRIRTRPPRLPRPRPRPAYHPRP | -0.0827 |
| RRIRKRPPRLPRPRPRPSPRPRP | 1.04 |
| RRIRFRPPRLPRPRPRPDVWPRP | 0.128 |
| RRIRCRPPRLPRPRPRPEGRPRP | 0.0128 |
| RRIRQRPPRLPRPRPRPKNAPRP | 0.0178 |
| RRIRIRPPRLPRPRPRPYLMPRP | -0.143 |
| RRIRFRPPRLPRPRPRPGPEPRP | 0.103 |
| RRIRVRPPRLPRPRPRPNVWPRP | 0.0782 |
| RRIRTRPPRLPRPRPRPARVPRP | 0.195 |
| RRIRARPPRLPRPRPRPDADPRP | 1.63 |
| RRIRIRPPRLPRPRPRPYMTPRP | -1.6 |
| RRIRERPPRLPRPRPRPVVSPRP | -0.0681 |
| RRIRDRPPRLPRPRPRPVFGPRP | 0.342 |
| RRIRWRPPRLPRPRPRPCRNPRP | -0.0199 |
| RRIRQRPPRLPRPRPRPIYTPRP | 0.036 |
| RRIRHRPPRLPRPRPRPMFDPRP | 0.108 |
| RRIRGRPPRLPRPRPRPSGFPRP | 0.547 |
| RRIRWRPPRLPRPRPRPGEMPRP | 0.0495 |

| Sequence | shrunken log2 fold change |
| --- | --- |
| RRIRIRPPRLPRPRPRPDQTPRP | 0.000407 |
| RRIRQRPPRLPRPRPRPIHSPRP | -0.138 |
| RRIRIRPPRLPRPRPRPDLAPRP | -0.169 |
| RRIRERPPRLPRPRPRPMNMPRP | -0.176 |
| RRIRARPPRLPRPRPRPEDKPRP | 1.89 |
| RRIRWRPPRLPRPRPRPQIDPRP | -0.688 |
| RRIRTRPPRLPRPRPRPYMIPRP | -0.478 |
| RRIRFRPPRLPRPRPRPTPCPRP | 0.107 |
| RRIRKRPPRLPRPRPRPPWCPRP | 0.401 |
| RRIRLRPPRLPRPRPRPACWPRP | 0.498 |
| RRIRMRPPRLPRPRPRPMWGPRP | 0.285 |
| RRIRWRPPRLPRPRPRPIPDPRP | -0.0879 |
| RRIRPRPPRLPRPRPRPCSAPRP | 0.199 |
| RRIRHRPPRLPRPRPRPSDKPRP | -0.355 |
| RRIRSRPPRLPRPRPRPRWPPRP | 0.553 |
| RRIRYRPPRLPRPRPRPAACPRP | 0.115 |
| RRIRFRPPRLPRPRPRPSAQPRP | 0.24 |
| RRIRRRPPRLPRPRPRPSSIPRP | -0.485 |
| RRIRFRPPRLPRPRPRPRFAPRP | 0.366 |
| RRIRLRPPRLPRPRPRPKICPRP | 0.0221 |
| RRIRMRPPRLPRPRPRPVQDPRP | 0.32 |
| RRIRMRPPRLPRPRPRPTLKPRP | 0.501 |

| Sequence | shrunken log2 fold change |
| --- | --- |
| RRIRARPPRLPRPRPRPTTVPRP | 0.45 |
| RRIRGRPPRLPRPRPRPEACPRP | 1.11 |
| RRIRVRPPRLPRPRPRPMMWPRP | -0.368 |
| RRIRGRPPRLPRPRPRPIGWPRP | 1.18 |
| RRIRWRPPRLPRPRPRPDCQPRP | -0.00822 |
| RRIRSRPPRLPRPRPRPMAMPRP | 0.0808 |
| RRIRYRPPRLPRPRPRPSFEPRP | -0.689 |
| RRIRKRPPRLPRPRPRPWDNPRP | 0.0448 |
| RRIRERPPRLPRPRPRPYMLPRP | -1.42 |
| RRIRLRPPRLPRPRPRPNALPRP | -0.0646 |
| RRIRDRPPRLPRPRPRPILMPRP | 0.303 |
| RRIRERPPRLPRPRPRPFYTPRP | -0.629 |
| RRIRRRPPRLPRPRPRPPSKPRP | 0.172 |
| RRIRLRPPRLPRPRPRPVSRPRP | 0.0317 |
| RRIRVRPPRLPRPRPRPQYGPRP | -0.0699 |
| RRIRHRPPRLPRPRPRPLKSPRP | -0.178 |
| RRIRIRPPRLPRPRPRPMHCPRP | -0.00192 |
| RRIRFRPPRLPRPRPRPTCLPRP | -0.249 |
| RRIRKRPPRLPRPRPRPVKIPRP | 0.158 |
| RRIRVRPPRLPRPRPRPLASPRP | -0.214 |
| RRIRERPPRLPRPRPRPCVHPRP | -0.0795 |
| RRIRWRPPRLPRPRPRPANRPRP | 0.0566 |

| Sequence | shrunken log2 fold change |
| --- | --- |
| RRIRERPPRLPRPRPRPPRPPRP | 0.64 |
| RRIRLRPPRLPRPRPRPWNPPRP | -0.059 |
| RRIRRRPPRLPRPRPRPRSKPRP | 0.29 |
| RRIRCRPPRLPRPRPRPCQEPRP | -0.108 |
| RRIRIRPPRLPRPRPRPAHWPRP | 0.396 |
| RRIRFRPPRLPRPRPRPYDCPRP | 0.0187 |
| RRIRCRPPRLPRPRPRPQACPRP | 0.00494 |
| RRIRQRPPRLPRPRPRPDQGPRP | -0.0223 |
| RRIRQRPPRLPRPRPRPREDPRP | 0.242 |
| RRIRKRPPRLPRPRPRPKRCPRP | 0.309 |
| RRIRCRPPRLPRPRPRPDHTPRP | -0.699 |
| RRIRSRPPRLPRPRPRPHNPPRP | -0.531 |
| RRIRDRPPRLPRPRPRPHPTPRP | 0.0176 |
| RRIRIRPPRLPRPRPRPCNYPRP | -0.103 |
| RRIRARPPRLPRPRPRPFSHPRP | -0.124 |
| RRIRKRPPRLPRPRPRPAFFPRP | 0.411 |
| RRIRHRPPRLPRPRPRPCLKPRP | -0.16 |
| RRIRQRPPRLPRPRPRPLCLPRP | -0.253 |
| RRIRKRPPRLPRPRPRPSNKPRP | 0.0208 |
| RRIRMRPPRLPRPRPRPIVDPRP | 0.35 |
| RRIRLRPPRLPRPRPRPHYPPRP | -0.736 |
